Assay results: PMC10053881 (Pharmaceutics, 2023)
Bridge positions count the residues as written; N and C are the ends. Square brackets hold non-standard residues; d marks the D form. Peptide text beside a SMILES is read from it. * marks the point of attachment. DOTA = O=C(O)CN1CCN(CC(=O)O)CCN(CC(=O)*)CCN(CC(=O)O)CC1; dPhe(4-NHCONH2) = NC(=O)Nc1ccc(C[C@@H](N)C(=O)O)cc1; Phe(4-Cl) = N[C@@H](Cc1ccc(Cl)cc1)C(=O)O

Assay: Biodistribution in SCID mice bearing twin HEK293-SST2R and wtHEK293 tumors
Conditions: male, mouse, iv, total radioactivity, mean ± sd, n = 4; for tissue uptake at 4 h: 4 h pi; for tissue uptake at 24 h: 24 h pi; for tissue uptake at 48 h: 48 h pi
Description: Freshly harvested HEK293-SST2R cells (1.2 × 10^7cells) and wtHEK293 cells (0.6 × 10^7 cells) were suspended in physiological saline (150 μL) and inoculated in the right and left flanks, respectively, of 43 male SCID mice (23.1 ± 1.6 g body weight, six weeks of age on arrival day; NCSR “Demokritos” Animal House, Athens, Greece). Mice were kept under aseptic conditions for 12–15 days and until palpable tumors (300–600 mg) were grown at the inoculation sites. […] Animals were euthanized at 4 and 24 h pi and immediately dissected. Blood samples, organs of interest and tumors were rapidly collected, weighed and counted in the gamma counter. […] Animals were euthanized at 4, 24 and 48 h pi and the procedure described above was followed. Biodistribution data were calculated with the aid of suitable standards of the administered dose as percent of the injected activity per gram tissue (%IA/g) with excel software (Microsoft Corporation, Redmond, Washington, […], USA). Results were provided as average ± sd values, n = 4 per time point, via the PRISM^TM 6.0 GraphPad software (San Diego, CA, USA). Statistical analysis was performed as previously described.

[1] = in vivo, Tu+ (HEK293-SST2R tumor) uptake, In-111 radioligands, iv 20–25 pmol
[2] = kidneys, Kidneys uptake, In-111 radioligands, iv 20–25 pmol
[3] = liver, Liver uptake, In-111 radioligands, iv 20–25 pmol
[4] = lungs, Lungs uptake, In-111 radioligands, iv 20–25 pmol
[5] = muscle, Muscle uptake, In-111 radioligands, iv 20–25 pmol
[6] = pancreas, Pancreas uptake, In-111 radioligands, iv 20–25 pmol
[7] = spleen, Spleen uptake, In-111 radioligands, iv 20–25 pmol
[8] = stomach, Stomach uptake, In-111 radioligands, iv 20–25 pmol
[9] = blood, 40 pmol, Blood uptake, Lu-177 radioligands, iv 40 pmol
[10] = femur, 40 pmol, Femur uptake, Lu-177 radioligands, iv 40 pmol
[11] = in vivo, 40 pmol, Tu+ (HEK293-SST2R tumor) uptake, Lu-177 radioligands, iv 40 pmol
[12] = in vivo, 40 pmol, Tu- (wtHEK293 tumor) uptake, Lu-177 radioligands, iv 40 pmol
[13] = intestines, 40 pmol, Intestines uptake, Lu-177 radioligands, iv 40 pmol
[14] = kidneys, 40 pmol, Kidneys uptake, Lu-177 radioligands, iv 40 pmol
[15] = liver, 40 pmol, Liver uptake, Lu-177 radioligands, iv 40 pmol
[16] = lungs, 40 pmol, Lungs uptake, Lu-177 radioligands, iv 40 pmol
[17] = muscle, 40 pmol, Muscle uptake, Lu-177 radioligands, iv 40 pmol
[18] = pancreas, 40 pmol, Pancreas uptake, Lu-177 radioligands, iv 40 pmol
[19] = spleen, 40 pmol, Spleen uptake, Lu-177 radioligands, iv 40 pmol
[20] = stomach, 40 pmol, Stomach uptake, Lu-177 radioligands, iv 40 pmol

Structure (SMILES): C[C@@H](O)[C@@H]1NC(=O)[C@H](CCCCN)NC(=O)[C@@H](Cc2ccc(NC(N)=O)cc2)NC(=O)[C@H](Cc2ccc(O)cc2)NC(=O)[C@H](NC(=O)[C@H](Cc2ccc(Cl)cc2)NC(=O)CN2CCN(CC(=O)O)CCN(CC(=O)O)CCN(CC(=O)O)CC2)CSSC[C@@H](C(=O)N[C@H](Cc2ccc(O)cc2)C(N)=O)NC1=O [[^111In]In-DOTA-LM3, metal not drawn] ({DOTA}-[Phe(4-Cl)][dC]Y[dPhe(4-NHCONH2)]KTC[dY]-NH2; disulfide 2-7)
- tissue uptake at 4 h [1]: 36.4 ± 2.05 %ID/g
- tissue uptake at 24 h [1]: 20.9 ± 3.02 %ID/g
- tissue uptake at 24 h (in vivo, Tu- (wtHEK293 tumor) uptake, In-111 radioligands, iv 20–25 pmol): 0.29 ± 0.01 %ID/g
- tissue uptake at 4 h [2]: 15.4 ± 0.58 %ID/g
- tissue uptake at 24 h [2]: 4.25 ± 0.77 %ID/g
- tissue uptake at 4 h [3]: 2.04 ± 0.25 %ID/g
- tissue uptake at 24 h [3]: 0.58 ± 0.06 %ID/g
- tissue uptake at 4 h [4]: 3.14 ± 0.48 %ID/g
- tissue uptake at 24 h [4]: 0.59 ± 0.12 %ID/g
- tissue uptake at 4 h [5]: 0.08 ± 0.01 %ID/g
- tissue uptake at 24 h [5]: 0.04 ± 0.02 %ID/g
- tissue uptake at 4 h [6]: 9.94 ± 0.79 %ID/g
- tissue uptake at 24 h [6]: 1.2 ± 0.14 %ID/g
- tissue uptake at 4 h [7]: 0.46 ± 0.05 %ID/g
- tissue uptake at 24 h [7]: 0.27 ± 0.03 %ID/g
- tissue uptake at 4 h [8]: 0.8 ± 0.17 %ID/g
- tissue uptake at 24 h [8]: 0.5 ± 0.09 %ID/g

Structure (SMILES): C[C@@H](O)[C@@H]1NC(=O)[C@H](CCCCN)NC(=O)[C@@H](Cc2ccc(NC(N)=O)cc2)NC(=O)[C@H](Cc2ccc(O)cc2)NC(=O)[C@H](NC(=O)[C@H](Cc2ccc(Cl)cc2)NC(=O)CN2CCN(CC(=O)O)CCN(CC(=O)O)CCN(CC(=O)O)CC2)CSSC[C@@H](C(=O)N[C@H](Cc2ccc(O)cc2)C(N)=O)NC1=O [[^177Lu]Lu-DOTA-LM3, metal not drawn] ({DOTA}-[Phe(4-Cl)][dC]Y[dPhe(4-NHCONH2)]KTC[dY]-NH2; disulfide 2-7)
- tissue uptake at 24 h [9]: 0.07 %ID/g
- tissue uptake at 48 h [9]: 0.06 ± 0.01 %ID/g
- tissue uptake at 4 h [10]: 1.56 ± 0.24 %ID/g
- tissue uptake at 24 h [10]: 1.38 ± 0.18 %ID/g
- tissue uptake at 48 h [10]: 0.88 ± 0.05 %ID/g
- tissue uptake at 48 h (heart, 40 pmol, Heart uptake, Lu-177 radioligands, iv 40 pmol): 0.13 ± 0.02 %ID/g
- tissue uptake at 4 h [11]: 45.5 ± 1.66 %ID/g
- tissue uptake at 24 h [11]: 37.6 ± 3.42 %ID/g
- tissue uptake at 48 h [11]: 18.8 ± 0.88 %ID/g
- tissue uptake at 4 h [12]: 1.66 ± 0.14 %ID/g
- tissue uptake at 24 h [12]: 1.53 ± 0.15 %ID/g
- tissue uptake at 48 h [12]: 0.75 ± 0.08 %ID/g
- tissue uptake at 4 h [13]: 2.71 ± 0.18 %ID/g
- tissue uptake at 24 h [13]: 1.52 ± 0.21 %ID/g
- tissue uptake at 48 h [13]: 0.78 ± 0.09 %ID/g
- tissue uptake at 4 h [14]: 11.5 ± 0.26 %ID/g
- tissue uptake at 24 h [14]: 5.14 ± 0.92 %ID/g
- tissue uptake at 48 h [14]: 2.47 ± 0.67 %ID/g
- tissue uptake at 4 h [15]: 6.79 ± 0.84 %ID/g
- tissue uptake at 24 h [15]: 3.38 ± 0.89 %ID/g
- tissue uptake at 48 h [15]: 1.47 ± 0.05 %ID/g
- tissue uptake at 4 h [16]: 15.7 ± 1.2 %ID/g
- tissue uptake at 24 h [16]: 8.88 ± 0.26 %ID/g
- tissue uptake at 48 h [16]: 5.11 ± 0.63 %ID/g
- tissue uptake at 4 h [17]: 0.07 ± 0.01 %ID/g
- tissue uptake at 24 h [17]: 0.05 ± 0.01 %ID/g
- tissue uptake at 48 h [17]: 0.05 %ID/g
- tissue uptake at 4 h [18]: 46.6 ± 2.2 %ID/g
- tissue uptake at 24 h [18]: 23 ± 4.32 %ID/g
- tissue uptake at 48 h [18]: 7.85 ± 0.94 %ID/g
- tissue uptake at 4 h [19]: 0.81 ± 0.06 %ID/g
- tissue uptake at 24 h [19]: 0.56 ± 0.07 %ID/g
- tissue uptake at 48 h [19]: 0.4 ± 0.03 %ID/g
- tissue uptake at 4 h [20]: 14.6 ± 1.85 %ID/g
- tissue uptake at 24 h [20]: 8.03 ± 1.43 %ID/g
- tissue uptake at 48 h [20]: 3.27 ± 0.34 %ID/g
